Laboratory results taken from US20120316071A1 (published 2012).
Where a chain is given by its changes, count along the chain named. Numbers in names are those of the source.

Tests used:
[1] = molecular target: T1, rHuman P-Cadherin/Fc Chimera, CF (R&D Systems Cat#861-PC) (human, UniProt P22223 108-654); experiment: ECL Multispot (MSD), antigen spotted; Fab 50 (µM); blank 386
T1 construct: Bought recombinant protein; Fc part of the bought chimera not given

[2] = molecular target: T2, rHuman HGF R/c-MET/Fc Chimera, CF (R&D Systems Cat#358-MT/CF) (human, UniProt P08581 25-932); experiment: as above
T2 construct: Bought recombinant protein; also called HGF R/Fc; Fc part of the bought chimera not given

[3] = molecular target: T3, rHuman IGF-1 sR, CF (R&D Systems Cat#391-GR) (human, UniProt P08069 31-932); experiment: as above
T3 construct: Bought recombinant soluble receptor; also called insulin-like growth factor-1 soluble receptor

[4] = molecular target: T4, rHuman EGF R/Fc Chimera, CF (R&D Systems Cat#344-ER) (human, UniProt P00533 25-645); experiment: as above
T4 construct: Bought recombinant protein; Fc part of the bought chimera not given

[5] = molecular target: T5, rHuman CD44/Fc Chimera, CF (R&D Systems Cat#3660-CD) (human, UniProt P16070 21-220); experiment: as above
T5 construct: Bought recombinant protein; Fc part of the bought chimera not given

[6] = molecular target: T6, rHuman Erythropoietin R/Fc Chimera, CF (R&D Systems Cat#963-ER) (human, UniProt P19235 25-250); experiment: as above
T6 construct: Bought recombinant protein; also called EPO R; EPO R/Fc; Fc part of the bought chimera not given
T6 sequence (looked up): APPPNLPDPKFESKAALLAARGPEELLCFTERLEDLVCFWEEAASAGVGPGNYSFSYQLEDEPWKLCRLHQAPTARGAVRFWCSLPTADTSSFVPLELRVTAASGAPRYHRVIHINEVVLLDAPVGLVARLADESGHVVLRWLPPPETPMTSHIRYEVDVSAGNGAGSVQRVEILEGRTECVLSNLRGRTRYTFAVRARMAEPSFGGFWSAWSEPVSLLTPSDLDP

[7] = molecular target: T7, Recombinant Human DLL4 (R&D Systems Cat#1506-D4/CF) (human, UniProt Q9NR61 27-529); experiment: as above
T7 construct: Bought recombinant protein; also called delta-like protein 4; rHuman DLL4

[8] = molecular target: T8, rHuman Notch-1/Fc Chimera, CF (R&D Systems Cat#3647-TK) (human, UniProt P46531 19-526); experiment: as above
T8 construct: Bought recombinant protein; Fc part of the bought chimera not given

[9] = molecular target: T9, rHuman IGF-1 sR, CF (R&D Systems Cat#391-GR) (human, UniProt P08069 31-932); experiment: Multispot ECL (MSD), antigen spotted on plate, Fab 250 nM; blank spot 590
T9 construct: Bought recombinant soluble receptor; also called insulin-like growth factor-1 soluble receptor

[10] = molecular target: T10, rHuman Notch-1/Fc Chimera, CF (R&D Systems Cat#3647-TK) (human, UniProt P46531 19-526); experiment: as above
T10 construct: Bought recombinant protein; Fc part of the bought chimera not given

[11] = molecular target: T11, rHuman EGF R/Fc Chimera, CF (R&D Systems Cat#344-ER) (human, UniProt P00533 25-645); experiment: Multispot ECL (MSD) assay, antigen spotted on plate, Fab at 1.56 µM; blank spot 4357
T11 construct: Bought recombinant protein; also called epidermal growth factor receptor (EGF R); Fc part of the bought chimera not given

[12] = molecular target: T12, rHuman HGF R/c-MET/Fc Chimera, CF (R&D Systems Cat#358-MT/CF) (human, UniProt P08581 25-932); experiment: as above
T12 construct: Bought recombinant protein; also called HGF R/Fc; hepatocyte growth factor receptor (HGF R/c-Met); Fc part of the bought chimera not given

[13] = molecular target: T13, rHuman IGF-1 sR, (IGF-1 sR), CF (R&D Systems Cat#391-GR) (human, UniProt P08069 31-932); experiment: as above
T13 construct: Bought recombinant soluble receptor; also called insulin-like growth factor-1 soluble receptor

[14] = molecular target: T14, rHuman P-Cadherin/Fc Chimera, CF (R&D Systems Cat#861-PC) (human, UniProt P22223 108-654); experiment: as above
T14 construct: Bought recombinant protein; Fc part of the bought chimera not given

[15] = molecular target: T15, Recombinant Human DLL4 (R&D Systems Cat#1506-D4/CF) (human, UniProt Q9NR61 27-524); experiment: as above
T15 construct: Bought recombinant protein; also called delta-like protein 4; rHuman DLL4

[16] = molecular target: T16, rHuman CD44/Fc Chimera, CF (R&D Systems Cat#3660-CD) (human, UniProt P16070 21-220); experiment: as above
T16 construct: Bought recombinant protein; Fc part of the bought chimera not given

[17] = molecular target: T17, rHuman ErbB2/Fc Chimera, CF (R&D Systems Cat#1129-ER) (human, UniProt P04626 23-652); experiment: as above
T17 construct: Bought recombinant protein; also called human epidermal growth factor 2 receptor (ErbB2); Fc part of the bought chimera not given

[18] = molecular target: T18, rHuman Erythropoietin R/Fc Chimera, CF (R&D Systems Cat#963-ER) (human, UniProt P19235 25-250); experiment: as above
T18 construct: Bought recombinant protein; also called EPO R/Fc; Epo R; Fc part of the bought chimera not given
T18 sequence (looked up): T6 sequence (looked up)

[19] = molecular target: T19, rHuman Notch-1/Fc Chimera, CF (R&D Systems Cat#3647-TK) (human, UniProt P46531 19-526); experiment: as above
T19 construct: Bought recombinant protein; Fc part of the bought chimera not given

B1: Fab VH1-46_IGHD6-6*01_IGHJ1*01 S102A/S103P/S104F (APF) & L6_IGKJ1*01 (Fab, V domains shown)
VH: QVQLVQSGAEVKKPGASVKVSCKASGYTFTSYYMHWVRQAPGQGLEWMGIINPSGGSTSYAQKFQGRVTMTRDTSTSTVYMELSSLRSEDTAVYYCAREEYAPFSAEYFQHWGQGTLVTVSS
VL: not shown
notes: Tested as a Fab made in E. coli: VH cloned in Plasmid A (CH1 constant region, His6 and Flag tags), VL in Plasmid C (kappa constant region); also called H:APF & L:wt; APF triple mutant
ECL signal [1]: 652
ECL signal [2]: 525
ECL signal [3]: 558
ECL signal [4]: 585
ECL signal [5]: 557
ECL signal [6]: 768
ECL signal [7]: 80000
ECL signal [8]: 509

B2: Fab VH1-46_IGHD6-13*01_IGHJ4*01 & B3_IGKJ1*01 (Fab, V domains shown)
VH: B1 VH with E100G, A102S, P103S, F104S, S105W, A106Y, E107D, Q110D, H111Y
VL: not shown
notes: Germline Fab made in E. coli; VH was cloned into Plasmid A (CH1, His6 and Flag tags) and the kappa VL into Plasmid C (kappa CL)
ECL signal [9]: 993
ECL signal [10]: 1240

B3: Fab VH1-46_IGHD7-27*01_IGHJ2*01 & L6_IGKJ1*01 (Fab, V domains shown)
VH: QVQLVQSGAEVKKPGASVKVSCKASGYTFTSYYMHWVRQAPGQGLEWMGIINPSGGSTSYAQKFQGRVTMTRDTSTSTVYMELSSLRSEDTAVYYCARANWGYWYFDLWGRGTLVTVSS
VL: not shown
notes: Germline Fab made in E. coli; VH was cloned in Plasmid A (CH1 constant region, His6 and Flag tags) and the kappa VL in Plasmid C (kappa CL); Only the variable domains are tied to this Fab by name
ECL signal [11]: 7830
ECL signal [12]: 10300
ECL signal [13]: 6910
ECL signal [14]: 15000
ECL signal [15]: 10900
ECL signal [16]: 7600
ECL signal [17]: 7580
ECL signal [18]: 9480
ECL signal [19]: 9450
